Publication PMC9129083

biological target: Pst_A23 (Puccinia striiformis f. sp. tritici, UniProt A0A0L0VHF6 =M+36-181, internal_change); test: EMSA

| Binder | binding result |
| --- | --- |
| AACUUCUUCUUUACUUCCUUUCCU (ssRNA) [M2-RNA] | binds |
| AGGAGGCAAGGACCCACCUAGGCA (ssRNA) [M1-m-RNA] | no binding |
| GAAGAAGAAGAGAAGACCUGAAGA (ssRNA) [M1-RNA] | binds |
| ACUUCUUCUUGUUGUUGCUCCUGCUGC (ssRNA) [TaWRKY53-RNA] | binds |
| UUUCCCUAAAGUUUCUUACAAUGAUCUGGUUGAAGCAACAAAG (ssRNA) [TaXa21-RNA] | binds |
